Measured values as given in article PMC7440162 (Cell, 2020).

Key:
PTPRD ECD-Fc = molecular target: T1, PTPRD ECD-Fc (human, UniProt P23468 21-1265); test: ELISA
T1 sequence: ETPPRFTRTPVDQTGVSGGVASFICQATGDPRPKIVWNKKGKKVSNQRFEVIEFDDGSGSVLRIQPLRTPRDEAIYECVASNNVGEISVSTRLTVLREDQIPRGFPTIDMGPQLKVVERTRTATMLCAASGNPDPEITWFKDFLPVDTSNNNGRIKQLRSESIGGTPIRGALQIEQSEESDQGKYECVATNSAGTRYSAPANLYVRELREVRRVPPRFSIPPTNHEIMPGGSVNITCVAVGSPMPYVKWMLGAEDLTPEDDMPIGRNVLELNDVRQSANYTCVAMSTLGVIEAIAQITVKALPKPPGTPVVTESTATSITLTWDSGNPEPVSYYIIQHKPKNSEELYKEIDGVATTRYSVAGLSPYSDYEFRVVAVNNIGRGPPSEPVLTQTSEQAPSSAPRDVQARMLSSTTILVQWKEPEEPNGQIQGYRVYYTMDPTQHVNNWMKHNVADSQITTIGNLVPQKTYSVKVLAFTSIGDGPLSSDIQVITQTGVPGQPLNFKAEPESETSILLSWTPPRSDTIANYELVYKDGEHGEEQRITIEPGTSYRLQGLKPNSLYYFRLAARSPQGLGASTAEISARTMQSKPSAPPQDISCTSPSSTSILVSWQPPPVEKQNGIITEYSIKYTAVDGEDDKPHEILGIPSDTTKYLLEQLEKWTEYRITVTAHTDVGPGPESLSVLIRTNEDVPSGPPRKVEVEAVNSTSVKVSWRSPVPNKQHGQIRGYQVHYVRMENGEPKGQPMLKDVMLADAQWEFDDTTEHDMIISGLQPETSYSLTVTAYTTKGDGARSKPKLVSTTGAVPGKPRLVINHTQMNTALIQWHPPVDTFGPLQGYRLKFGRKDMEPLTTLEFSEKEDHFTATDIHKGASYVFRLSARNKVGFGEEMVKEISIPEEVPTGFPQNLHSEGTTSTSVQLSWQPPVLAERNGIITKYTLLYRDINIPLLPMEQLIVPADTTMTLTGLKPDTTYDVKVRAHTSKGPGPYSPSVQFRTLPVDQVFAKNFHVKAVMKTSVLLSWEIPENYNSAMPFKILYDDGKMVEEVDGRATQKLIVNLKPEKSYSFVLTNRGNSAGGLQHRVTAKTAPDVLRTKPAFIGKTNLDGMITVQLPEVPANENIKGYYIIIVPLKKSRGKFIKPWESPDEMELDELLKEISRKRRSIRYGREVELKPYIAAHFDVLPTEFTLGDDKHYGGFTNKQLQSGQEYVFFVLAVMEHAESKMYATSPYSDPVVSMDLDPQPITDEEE

PTPRS ECD-Fc = molecular target: T2, PTPRS ECD-Fc (human, UniProt Q13332 30-1282); test: SPR
T2 sequence: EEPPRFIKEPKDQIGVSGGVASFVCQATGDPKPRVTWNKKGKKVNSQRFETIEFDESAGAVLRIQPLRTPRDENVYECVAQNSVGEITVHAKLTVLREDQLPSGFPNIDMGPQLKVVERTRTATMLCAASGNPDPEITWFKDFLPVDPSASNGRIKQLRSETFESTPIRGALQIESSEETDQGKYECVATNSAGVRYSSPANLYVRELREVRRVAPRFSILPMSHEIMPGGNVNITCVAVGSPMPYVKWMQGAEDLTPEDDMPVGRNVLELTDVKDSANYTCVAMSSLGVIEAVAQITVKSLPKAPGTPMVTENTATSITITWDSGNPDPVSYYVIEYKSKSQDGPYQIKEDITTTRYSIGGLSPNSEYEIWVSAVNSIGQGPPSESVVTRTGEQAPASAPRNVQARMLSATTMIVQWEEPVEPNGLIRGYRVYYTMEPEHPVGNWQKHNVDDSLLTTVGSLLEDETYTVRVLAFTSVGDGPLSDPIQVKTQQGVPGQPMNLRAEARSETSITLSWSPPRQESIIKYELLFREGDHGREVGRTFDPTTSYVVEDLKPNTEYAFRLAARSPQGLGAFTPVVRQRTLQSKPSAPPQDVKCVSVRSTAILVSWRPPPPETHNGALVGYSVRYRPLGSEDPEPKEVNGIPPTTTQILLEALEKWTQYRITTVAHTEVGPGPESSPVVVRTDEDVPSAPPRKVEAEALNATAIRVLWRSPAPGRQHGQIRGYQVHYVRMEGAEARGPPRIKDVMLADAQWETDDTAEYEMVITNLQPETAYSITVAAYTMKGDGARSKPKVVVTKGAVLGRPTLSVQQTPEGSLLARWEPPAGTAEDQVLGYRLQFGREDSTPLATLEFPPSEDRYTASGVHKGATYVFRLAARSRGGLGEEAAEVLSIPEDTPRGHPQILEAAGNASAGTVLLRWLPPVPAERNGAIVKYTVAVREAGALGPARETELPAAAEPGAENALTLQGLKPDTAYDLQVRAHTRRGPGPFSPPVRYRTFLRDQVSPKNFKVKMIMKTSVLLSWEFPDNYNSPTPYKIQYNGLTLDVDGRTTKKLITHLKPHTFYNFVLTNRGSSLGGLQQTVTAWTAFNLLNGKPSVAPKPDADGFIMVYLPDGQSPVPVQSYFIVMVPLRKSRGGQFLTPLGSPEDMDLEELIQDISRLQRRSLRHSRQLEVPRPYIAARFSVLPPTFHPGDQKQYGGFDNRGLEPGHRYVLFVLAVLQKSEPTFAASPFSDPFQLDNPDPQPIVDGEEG

PTPRF ECD-Fc = molecular target: T3, PTPRF ECD-Fc (human, UniProt P10586 30-1263); test: SPR
T3 sequence: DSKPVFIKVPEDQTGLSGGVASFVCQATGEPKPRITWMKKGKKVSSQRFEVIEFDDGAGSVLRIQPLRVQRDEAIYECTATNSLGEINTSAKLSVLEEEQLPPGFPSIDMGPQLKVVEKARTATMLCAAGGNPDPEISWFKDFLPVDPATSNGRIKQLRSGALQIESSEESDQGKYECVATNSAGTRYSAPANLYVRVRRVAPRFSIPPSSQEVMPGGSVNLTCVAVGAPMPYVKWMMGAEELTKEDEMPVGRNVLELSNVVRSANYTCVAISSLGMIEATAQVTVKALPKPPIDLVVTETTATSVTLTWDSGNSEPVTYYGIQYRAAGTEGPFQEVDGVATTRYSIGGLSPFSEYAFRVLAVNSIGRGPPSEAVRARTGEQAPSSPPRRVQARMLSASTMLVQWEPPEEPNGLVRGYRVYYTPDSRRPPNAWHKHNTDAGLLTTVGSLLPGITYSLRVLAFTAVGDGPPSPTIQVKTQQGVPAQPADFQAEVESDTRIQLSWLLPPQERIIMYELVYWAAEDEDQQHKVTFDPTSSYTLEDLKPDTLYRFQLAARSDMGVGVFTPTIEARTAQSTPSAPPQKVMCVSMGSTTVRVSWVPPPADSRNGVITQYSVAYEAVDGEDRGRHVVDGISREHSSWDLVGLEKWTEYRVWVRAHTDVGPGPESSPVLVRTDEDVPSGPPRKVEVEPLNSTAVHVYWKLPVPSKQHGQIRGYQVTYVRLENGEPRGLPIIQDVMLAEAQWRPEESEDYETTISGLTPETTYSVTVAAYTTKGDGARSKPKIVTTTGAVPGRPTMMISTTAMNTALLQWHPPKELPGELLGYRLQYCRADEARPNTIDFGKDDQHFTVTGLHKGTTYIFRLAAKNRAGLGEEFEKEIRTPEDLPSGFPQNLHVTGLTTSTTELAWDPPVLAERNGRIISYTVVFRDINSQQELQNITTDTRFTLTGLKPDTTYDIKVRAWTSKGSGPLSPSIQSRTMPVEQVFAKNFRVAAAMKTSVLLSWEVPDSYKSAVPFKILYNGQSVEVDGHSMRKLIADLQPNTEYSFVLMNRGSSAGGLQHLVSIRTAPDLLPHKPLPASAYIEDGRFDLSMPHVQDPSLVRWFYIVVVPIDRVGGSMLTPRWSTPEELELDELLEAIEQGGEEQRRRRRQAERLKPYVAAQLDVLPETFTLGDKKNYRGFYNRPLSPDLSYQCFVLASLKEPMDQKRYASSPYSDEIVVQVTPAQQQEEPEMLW

Measured: binding result

B1: SALM2 ECD-Fc (Fc fusion)
chain: QPCPGRCICQNVAPTLTMLCAKTGLLFVPPAIDRRVVELRLTDNFIAAVRRRDFANMTSLVHLTLSRNTIGQVAAGAFADLRALRALHLDSNRLAEVRGDQLRGLGNLRHLILGNNQIRRVESAAFDAFLSTVEDLDLSYNNLEALPWEAVGQMVNLNTLTLDHNLIDHIAEGTFVQLHKLVRLDMTSNRLHKLPPDGLFLRSQGTGPKPPTPLTVSFGGNPLHCNCELLWLRRLTREDDLETCATPEHLTDRYFWSIPEEEFLCEPPLITRQAGGRALVVEGQAVSLRCRAVGDPEPVVHWVAPDGRLLGNSSRTRVRGDGTLDVTITTLRDSGTFTCIASNAAGEATAPVEVCVVPLPLMAPPPAAPPPLTEPGSSDIATPGRPGANDSAAERRLVAAELTSNSVLIRWPAQRPVPGIRMYQVQYNSSVDDSLVYRMIPSTSQTFLVNDLAAGRAYDLCVLAVYDDGATALPATRVVGCVQFTTAGDPAPCRPLRAHFLGGTM
modifications: biotin on the AviTag (as SPR ligand)
binds: PTPRD ECD-Fc | PTPRS ECD-Fc | PTPRF ECD-Fc
